The record followed here is publication PMC11642901 (bioRxiv, 2024).

The target in this assay is hMOG isoform 1 on live GL261 cells (human, UniProt Q16653). Nature of the assay: flow cytometry on cells.
Chain of hMOG isoform 1 on live GL261 cells (Q16653 30-247): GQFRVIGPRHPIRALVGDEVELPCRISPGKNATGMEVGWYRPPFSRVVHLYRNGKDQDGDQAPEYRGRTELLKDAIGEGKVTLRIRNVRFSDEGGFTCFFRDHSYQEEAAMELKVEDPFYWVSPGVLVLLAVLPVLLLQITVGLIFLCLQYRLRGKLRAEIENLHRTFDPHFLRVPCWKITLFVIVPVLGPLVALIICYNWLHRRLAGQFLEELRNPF

B1: anti-MOG IgG1 clone 8–18C5 (antibody, V domains shown)
VH: EVKLHESGAGLVKPGASVEISCKATGYTFSSFWIEWVKQRPGHGLEWIGEILPGRGRTNYNEKFKGKATFTAETSSNTAYMQLSSLTSEDSAVYYCATGNTMVNMPYWGQGTTVTVSS
VL: DIELTQSPSSLAVSAGEKVTMSCKSSQSLLNSGNQKNYLAWYQQKPGLPPKLLIYGASTRESGVPDRFTGSGSGTDFTLTISSVQAEDLAVYYCQNDHSYPLTFGAGTKLEIK
In the case of B1, the binding result was “binds”.
